Assay [1] has as its target human CLDN18.2 (Claudin18.2), P56856-2. The experiment in a line: not named in legend (MFI read-out, antibody titration on CLDN18.2). The note with it: value read at the highest antibody concentration, log10(µg/mL) about 1.5; read off a plot.
The target of assay [2] is Fcγ receptor type IIIA (CD16A), low affinity F158 (UniProt P08637). The assay is described as follows: not named in legend (luminescence read-out, antibody titration on CD16A F158). As to conditions: value read at the highest antibody concentration, log10(µg/mL) about -1; parent: est. 4400; read off a plot.
Chain of UniProt P08637 (P08637 17-254): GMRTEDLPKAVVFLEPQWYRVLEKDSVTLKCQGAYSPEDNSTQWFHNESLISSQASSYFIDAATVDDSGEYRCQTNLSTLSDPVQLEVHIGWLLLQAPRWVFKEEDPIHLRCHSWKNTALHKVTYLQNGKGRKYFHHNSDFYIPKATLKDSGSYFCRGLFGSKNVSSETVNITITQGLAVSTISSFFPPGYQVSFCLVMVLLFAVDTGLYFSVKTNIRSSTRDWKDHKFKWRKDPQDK

Take “ZL-1211 wild-type (WT) Fc Fc mutations for enhanced ADCC (substitutions not printed)”: the response in assay [1] came out at 35000 MFI; in assay [2], 5000 luminescence.
